Numbering of substitutions follows the chain as printed. Numbers in names are those of the source.
Tests used:
[1] = target: T1, MSNW10, recombinant full length human MSLN (human, UniProt Q13421 296-598); assay: SPR, additional experiments
T1 construct: also called MSNW10.002; FL-MSLN

[2] = target: T2, MSNW11, recombinant soluble (shed) MSLN lacking the C-terminal 7 AAs (human, UniProt Q13421 296-591); assay: H838 cell binding with shed MSLN (MSNW11) added
T2 construct: domain: soluble MSLN lacking the C-terminal 7 AAs; also called MSNW11.002; soluble MSLN
T2 sequence (Q13421 other isoform, or with tags, fused parts or gaps limits assumed): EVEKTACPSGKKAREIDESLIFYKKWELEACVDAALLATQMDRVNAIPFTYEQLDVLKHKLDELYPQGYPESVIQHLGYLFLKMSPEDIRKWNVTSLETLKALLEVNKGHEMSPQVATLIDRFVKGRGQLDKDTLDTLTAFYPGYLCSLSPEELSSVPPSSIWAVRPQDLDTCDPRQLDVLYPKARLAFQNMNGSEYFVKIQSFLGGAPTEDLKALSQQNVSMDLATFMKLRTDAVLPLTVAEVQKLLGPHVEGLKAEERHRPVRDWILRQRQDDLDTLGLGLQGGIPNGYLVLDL
Source text: Table 16 lists the immunization campaigns, antigens used, and number of clones returned at each stage of screening. Clones from which antibody sequences were successfully recovered were first screened for binding to recombinant full length human MSLN (MSNW10) and H838 cells that express MSLN on the cell surface. Binders were further screened for binding to cells in the presence of recombinant soluble MSLN lacking the C-terminal 7 AAs (MSNW11). This form of recombinant MSLN represented the product of cleavage at the closest cleavage site to the C-terminus known at the time, therefore, it theoretically represented the longest form of shed MSLN. The final concentration of shed MSLN in the assays was 100 nM.

[3] = target: T3, 14 AA stub (a.a. 290-303 of SEQ ID NO: 247) (human); assay: SPR, mAb captured, peptide injected
T3 peptide: GYLVLDLSMQEALS
Method: (§1) The binding was assessed by SPR. Briefly, GAH-Fc was used to capture mAbs on C4 sensor chip followed by antigen injection starting at 30 nM (14 amino acid stub), 100 nM (10-13 amino acid stubs), or 1000 nM (7-9 amino acid stubs) progressing in a 3-fold dilution series in single cycle kinetics mode. HBSP+0.01% BSA was used in the assay.

[4] = target: T4, 13 AA stub (a.a. 291-303 of SEQ ID NO: 247) (human); assay: SPR, mAb captured, peptide injected
T4 peptide: YLVLDLSMQEALS
Method: as §1

[5] = target: T5, 12 AA stub region peptide LVLDLSMQEALS (human); assay: SPR, mAb captured, peptide injected
T5 construct: free N-terminus; also called 12 AA Peptide
T5 peptide: LVLDLSMQEALS
Method: as §1

[6] = target: T6, 11 AA stub (a.a. 293-303 of SEQ ID NO: 247) (human); assay: SPR, mAb captured, peptide injected
T6 peptide: VLDLSMQEALS
Method: as §1

[7] = target: T7, 10 AA stub (a.a. 294-303 of SEQ ID NO: 247) (human); assay: SPR, mAb captured, peptide injected
T7 peptide: LDLSMQEALS
Method: as §1

[8] = target: T8, 9 AA stub (a.a. 295-303 of SEQ ID NO: 247) (human); assay: SPR, mAb captured, peptide injected
T8 peptide: DLSMQEALS
Method: as §1

[9] = target: T9, 8 AA stub (a.a. 296-303 of SEQ ID NO: 247) (human); assay: SPR, mAb captured, peptide injected
T9 construct: also called 8 AA Peptide; peptide of the last 8 C-terminal amino acids
T9 peptide: LSMQEALS
Method: as §1

[10] = target: T10, 7 AA stub (a.a. 297-303 of SEQ ID NO: 247) (human); assay: SPR, mAb captured, peptide injected
T10 peptide: SMQEALS
Method: as §1

[11] = target: T1, MSNW10, recombinant full length human …; assay: SPR, recombinant full-length human MSLN
[12] = target: T9, 8 AA stub (a.a. 296-303 of SEQ ID NO: …); assay: competition of OVCAR8 cell binding by the peptide
[13] = target: T11, human MSLN on the cell surface (human, UniProt Q13421 296-598); assay: high content imaging, surface staining of OVCAR8 cells
T11 construct: on cells stands the processed GPI-anchored 40 kDa MSLN; also called membrane MSLN; MSLN on H838, OVCAR-8 (OVCAR8), OVCAR-8 K1/C8, SK-OV-3 cells
T11 sequence (Q13421 other isoform, or with tags, fused parts or gaps limits assumed): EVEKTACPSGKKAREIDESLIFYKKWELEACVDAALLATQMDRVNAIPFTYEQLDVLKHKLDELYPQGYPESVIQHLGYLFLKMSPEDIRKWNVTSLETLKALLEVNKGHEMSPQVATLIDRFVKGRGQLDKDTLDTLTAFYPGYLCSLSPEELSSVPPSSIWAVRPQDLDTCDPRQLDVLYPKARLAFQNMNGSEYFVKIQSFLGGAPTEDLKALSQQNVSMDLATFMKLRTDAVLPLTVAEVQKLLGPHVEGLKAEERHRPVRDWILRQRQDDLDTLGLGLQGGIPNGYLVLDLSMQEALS
Method: OVCAR8 cells were cultured in RPMI 1640 medium supplemented with 10% FCS, 1% L-glutamine and 1% Gentamycin and seeded in Greiner CELLSTAR plate one day before experiment. 24 h after seeding, antibody mixture was prepared by diluting MSLN and control antibodies in Table 21 in full media containing CellMask™ Deep Red Plasma Membrane Stain (ThermoFisher, C10046) in 12 concentrations each with 3 folds dilution starting from 20 μg/ml and 20 μl of which were added directly to the cells in 20 μl. Antibodies were allowed for binding to the cell surface for 2h inside the incubator (37°) C. and the surface bound antibodies were fixed for 15 min at RT by directly adding 30 ul of 10% Formaldehyde (04018-1, Polysciences). Afterwards residual Formaldehyde was removed by washing the cells twice with PBS and the primary antibodies were stained with secondary antibodies (Alexa Fluor 488 goat anti-human IgG, Invitrogen, A11013) complemented with Hoechst 33342 (H3570, ThermoFisher) and HCS CellMask™ Deep Red Stain (ThermoFisher, H32721) in PBS for 1h at RT. After removing unbound antibodies and other dyes by washing the cells 3 times with PBS cells were imaged on the CellVoyager 7000 (Yokogawa, Tokyo, Japan) using a 40×/0.95 objective. Of each well, 9 fields were imaged. Image analysis was performed with Acapella (PerkinElmer, Waltham, MA, USA) and the results stored in Phaedra (OpenAnalytics, Antwerp, Belgium). Data analysis was done in R (www.r-project.org).
The data was then fitted using the four-parameter logistic using least-squares regression, keeping the lower boundary fixed at 0.

[14] = target: T5, 12 AA stub region peptide LVLDLSMQEALS; assay: SPR
[15] = target: T12, CD3 epsilon on human T-cells (human, UniProt P07766 23-207); assay: cell-based or functional assay
T12 sequence (P07766 23-207 limits assumed): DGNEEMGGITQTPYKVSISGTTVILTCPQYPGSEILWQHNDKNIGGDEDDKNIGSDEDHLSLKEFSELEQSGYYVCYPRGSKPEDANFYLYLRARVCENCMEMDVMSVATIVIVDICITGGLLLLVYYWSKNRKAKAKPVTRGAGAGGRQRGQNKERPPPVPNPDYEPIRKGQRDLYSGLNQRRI

[16] = target: T12, CD3 epsilon on human T-cells; assay: T-cell binding assay, FIG. 15
[17] = target: T12, CD3 epsilon on human T-cells; assay: T cell binding

B1: MSLNB590 (antibody, V domains shown)
VH: QVQLQQSGPGLVKPSQTLSLTCAISGDSVSSTRAAWNWIRQSPSRGLEWLGRTYYRSKWYNDYTVSVKSRITINPDTSKNQFSLHLNSVTPEDSAVYFCARGNVGRVDFWGQGTLVTVSS
VL: EIVMTQSPLSLPVTPGEPASISCRSSQSLLHSDGYNYLDWYLQKPGQSPQLLIYLGSNRASGVPDRFSGSGSDTDFTLKISRVEAEDVGVYYCMQGLRTPLTFGPGTKLEIK
notes: mAb; also called MSNB590
Kd [1]: 1.2 nM | binding result [2]: no binding (tested: 100 nM)

B2: MSLNB591 (antibody, V domains shown)
VH: QVQLQQSGPGLVKPSQTLSLTCGISGDSVSSSSVAWNWIRQSPSRGLEWLGRTYYRSKWYNDYAISVRSRVTINPDTSKNQFSLQLNSVTPEDTAVYYCSRGVVGALDYWGQGTLVTVSS
VL: DIVMTQSPLSLTVTPGEPASISCRSSQSLLFTNGYNSLDWYLQKPGQSPQFLIYLVSNRASGVPDRFSGSGSGTDFTLKISRVEAEDVGVYYCMQALRTPYTFGQGTKVDIK
notes: mAb; also called MSNB591
Kd [1]: 0.3 nM | Kd [3]: 0.563 nM | Kd [4]: 1.08 nM | Kd [5]: 2.04 nM | binding result [6]: no binding (tested: 100 nM) | binding result [7]: no binding (tested: 100 nM) | binding result [8]: no binding (tested: 1000 nM) | binding result [9]: no binding (tested: 1000 nM) | binding result [10]: no binding (tested: 1000 nM) | binding result [2]: no binding (tested: 100 nM)

B3: MSNB133 (antibody, V domains shown)
VH: QVQLQQSGPGLVKPSQTLSLTCAISGDSVSSNRVAWNWIRQSPSRGLEWLGRTYYRSKWYNDFALSVKSRININADTSKSQFSLQLNSVTPEDTAVYYCARGIVGALDYWGQGTTVTVSS
VL: B1 VL with E1D, H31F, D33N, Y37S, G71E, D73G, G96A, R98Q, L101F
notes: mAb
Kd [11]: 3.7 nM | binding result [2]: no binding (tested: 100 nM)

B4: MSLNB570 (antibody, V domains shown)
VH: B2 VH with G23A, S32T, R45G, I65L, R68K, V71M, S78A, K79S, V103I
VL: B2 VL with S7T, T12P, E17G, L30M, F31Y, T32S, S37H, Y54H, V56G, A60V
notes: mAb; also called MSNB570
Kd [3]: 3.67 nM | Kd [4]: 4.37 nM | Kd [5]: 7.97 nM | binding result [6]: no binding (tested: 100 nM) | binding result [7]: no binding (tested: 100 nM) | binding result [8]: no binding (tested: 1000 nM) | binding result [10]: no binding (tested: 1000 nM) | Kd [11]: 3.6 nM | binding result [2]: no binding (tested: 100 nM) | binding result [12]: no binding | IC50 [13]: 0.0728 µg/mL | Maximum Value (arbitrary units) [13]: 1.39e+07 arbitrary units

B5: MSNB459 (antibody, V domains shown)
VH: B2 VH with Q1E, Q5V, G23A, S32N, I65L, R68K, V71I, S100A, L107V
VL: B1 VL with E1D, S28N, H31Y, D33N, Y37S, D73G, P105G, L109V
notes: mAb
Kd [11]: 3.5 nM | binding result [2]: no binding (tested: 100 nM)

B6: MSLNB592 (antibody, V domains shown)
VH: B2 VH with G23A, S32T, R45G, I65L, R68K, V71M, S78A, K79S, V103I
VL: B2 VL with T12P, L30M, F31Y, T32S, S37H, Y54H, V56G, D110E
notes: mAb; also called MSNB592
Kd [1]: 0.9 nM | binding result [2]: no binding (tested: 100 nM)

B7: MSLNB571 (antibody, V domains shown)
VH: B2 VH with G23A, S32T, R45G, T53I, I65L, R68K, V71M, S78A, K79S, V103I
VL: B2 VL with S7T, T12P, E17G, L30M, F31Y, T32S, S37H, Y54H, V56G, A60V
notes: mAb; also called MSNB571
binding result [14]: binds | Kd [11]: 1.8 nM | binding result [2]: no binding (tested: 100 nM) | IC50 [13]: 0.0735 µg/mL | Maximum Value (arbitrary units) [13]: 1.46e+07 arbitrary units

B8: MNC3B199 (bispecific antibody, V domains shown, not shown: a dimerising Fc or GST; small tags and cut ends)
VH 1: QVQLVESGPGQVKPSQTLSLTCAISGDSVSSNSAAWNWIRQSPSRGLEWLGRTYYRSKWYNDYAVSVKSRITINPDTSKNQFSLQLNSVTPEDTAVYYCARRDYSSGGFDYWGQGTTVTVSS
VL 1: not shown
VH 2: QVQLVQSGAEVKKPGSSVKVSCKASGYTFTRSTMHWVKQAPGQGLEWMGYINPSSAYTNYNQKFQGRVTLTADKSTSTAYMELSSLRSEDTAVYYCASPQVHYDYAGFPYWGQGTLVTVSS
VL 2: EIVLTQSPATLSASPGERVTLSCSASSSVSYMNWYQQKPGQAPRRLIYDSSKLASGVPARFSGSGSGRDYTLTISSLEPEDFAVYYCQQWSRNPPTFGGGTKVEIK
AC90 [nM], cytotoxicity, 1:1 E:T, 72 hours [15]: 7.32 nM | Max. Activity, cytotoxicity, 1:1 E:T, 72 hours [15]: 85% | qAC50 [nM], cytotoxicity, 1:1 E:T, 72 hours [15]: 1.19 nM

B9: MNC3B187 (bispecific antibody)
scFv: EVQLVESGGGLVKPGGSLRLSCAASGFTFSRYNMNWVRQAPGKGLEWVSSISTSSNYIYYADSVKGRFTFSRDNAKNSLDLQMSGLRAEDTAIYYCTRGWGPFDYWGQGTLVTVSSGGSEGKSSGSGSESKSTGGSDIQMTQSPSSLSASVGDRVTITCRARQSIGTAIHWYQQKPGKAPKLLIKYASESISGVPSRFSGSGSGTDFTLTISSLQPEDFATYYCQQSGSWPYTFGQGTKLEIK
VH: B8 VH 1
VL: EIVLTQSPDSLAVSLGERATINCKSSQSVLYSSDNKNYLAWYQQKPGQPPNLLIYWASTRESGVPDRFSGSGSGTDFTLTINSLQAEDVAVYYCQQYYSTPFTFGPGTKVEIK
notes: Bipod: MSNB457 Fab x CD3W245 HL scFv-Fc; also called CD3W245 HL containing Bipod
AC90 [nM], cytotoxicity, 1:1 E:T, 72 hours [15]: 0.016 nM | Max. Activity, cytotoxicity, 1:1 E:T, 72 hours [15]: 88% | qAC50 [nM], cytotoxicity, 1:1 E:T, 72 hours [15]: 0.0035 nM | EC50 [16]: 2 nM

B10: CD3B2030-N106A (scFv, V domains shown)
VH: B8 VH 2 with M48I
VL: B8 VL 2 with L46W
EC50 [17]: 50 to 100 nM

B11: CD3W245 HL formatted in the 2+1 format (bispecific antibody)
scFv: B9 scFv
VH: B8 VH 1
VL: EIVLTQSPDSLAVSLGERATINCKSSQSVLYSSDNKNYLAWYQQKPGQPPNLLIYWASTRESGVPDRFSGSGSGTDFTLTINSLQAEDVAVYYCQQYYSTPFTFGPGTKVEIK
notes: two MSLN targeting (MSNB457) Fabs and one CD3 scFv set between Fab and Fc of one heavy chain; also called CD3W245 HL 2+1
EC50 [16]: 44 nM

B12: CD3B2051-N106A (scFv, V domains shown)
VH: B8 VH 2
VL: B8 VL 2
notes: CD3 targeting scFv
EC50 [17]: 50 to 100 nM

Source: patent US20240166737A1 (Janssen / Centocor, published 2024)
